Source: US20160228506A1, “Compositions and Formulations for Prevention and Reduction of Tumorigenesis, Cancer Cell Proliferation and Invasion, and Methods of Production and Use Thereof in Cancer Treatment” (PRONUTRIA, INC., priority 2013, published 2016)

B1: SEQID-00546: protein of the 168 nutritive polypeptide library (protein, listed as Saccharomyces cerevisiae)
chain: MCSAGGIRRPIQIEEFKTAISGMSDMELAQIKTEIENSINHLQRSNARLGKYIAKLEGADDRLEADDSDDLENIDSGDLALYKDSVRENEIVLNNYNERVDALEQETVYRKTGHGKSKHEVEAKDNTNKGPDVDMDNSNVDVVTPNSIFI
modifications: source: /note="strain ATCC 204508 / S288c"
notes: protein of the 168 nutritive polypeptide library
B2: SEQID-00610: protein of the 168 nutritive polypeptide library (protein, listed as Saccharomyces cerevisiae)
chain: MVLEATVLVIDNSEYSRNGDFPRTRFEAQIDSVEFIFQAKRNSNPENTVGLISGAGANPRVLSTFTAEFGKILAGLHDTQIEGKLHMATALQIAQLTLKHRQNKVQHQRIVAFVCSPISDSRDELIRLAKTLKKNNVAVDIINFGEIEQNTELLDEFIAAVNNPQEETSHLLTVTPGPRLLYENIASSPIILEEGSSGMGAFGGSGGDSDANGTFMDFGVDPSMDPELAMALRLSMEEEQQRQERLRQQQQQQDQPEQSEQPEQHQDK
modifications: source: /note="strain ATCC 204508 / S288c"
notes: as for B1
B3: SEQID-00601: protein of the 168 nutritive polypeptide library (protein, listed as Agaricus bisporus)
chain: MTRSWEPGTQYNLGDVVEYNGDEYKIIQAHSSQSDWAPDRTPALWGKLPHRHHQQGQYQQQQECQPQQPQKTCYDYGKQEQAPQHSDSKEKKNWFGNITESQKQALEVGGGVALGAGLLGGAFAAWKHHQHKEEAHDSFEAWANAARSRAEEFRAKGPQGPATWVYNEGKHIPEQAILVGTEHNWNLYICRAYCDGGVQIGKASDVFKKGAVIGYKEDEHHLDKYEILLGDMRGLKWVQTGNSLDLASLGATPVEGGYENDHTRLYIARAFHKGAKHPGKVSERLDGAYIPYDGKEKCVKEYEVLCYL
modifications: source: /note="var. bisporus"; source: /note="strain H97 / ATCC MYA-4626 / FGSC 10389"
notes: as for B1
B4: SEQID-00598: nutritive polypeptide naturally produced in Flaxseed, recombinantly expressed in E. coli (protein, listed as Linum usitatissimum)
chain: MSRRCPGKNAWPELVGKSGNMAAATVERENRNVHAIVLKEGSAMTKDFRCDRVWVIVNDHGVVTSVPHIT
B5: SEQID-00647: protein of the 168 nutritive polypeptide library (protein)
chain: MALSKIEEARQLNDDDLSEQILEIKKQLANLRLLKATGRLEKPHEIRHTRHRLSQLLTVERERQLPNQSPA
modifications: Arthrospira platensis C1
notes: as for B1
B6: SEQID-00606: protein of the 168 nutritive polypeptide library (protein)
chain: MASEGDHHHHHHHHQDHDHHHHDHDHHHHHDGEGETNSWVGKDGKVYHSHDGLAPHSHEPIYSPGYFTRRAPPLLNRNFNERAFTVGIGGPVGTGKTALMLALCELLRENYSLAAVTNDIFTKEDGEFLVKHKALPEERIRAVETGGCPHAAIREDISINLGPLEELSNLFKADILLCESGGDNLAANFSRELADYIIYIIDVSGGDKIPRKGGPGITQADLLVINKTDLAPAIGADLAVMQRDALRMRDGGPFVFAQVKHKIGVEEIGNLVLQAWEAATGNKRH
modifications: Glycine max
notes: as for B1
B7: SEQID-00220: nutritive polypeptide (protein, listed as Bos taurus)
chain: DTKKKVDDDLGTIENLEEAKKKLLKDVEVLSQRLEEKALAYDKLEKTKTRLQQELDDLLVDLDHQ
B8: SEQID-00302: nutritive polypeptide (protein)
chain: MAKKTVANLSASELSGKKVLVRADFNVPLDNGSISDDTRIRAALPTIQDLTSKGAKVILSSHFGRPQGQVVESMRLTPVAARLSELLGKTVKKCDDCIGEEVAVAVGAMSDGDVLLLENVRFHAAEEKNDPEFAKQLASVADLYVNDAFGTAHRAHASTEGVTKYLSPCVAGYLIEKELQFLQGAIESPQRPLAAIIGGSKVSSKIGVIEALLDKCDKLLLGGGMIFTFYKARGLSVGNSLVEEDKLELAKSLEAKAKEKGVTMLLPTDVVLADKFAADADSQTVSVEAIPDGWMGLDIGPDSVKVFQEALGDCKTVLWNGPMGVFEFEKFAAGTRAIAQTLAELTSTGTTTIIGGGDSVAAVEQLNLGEKMSHISTGGGASLELLEGKQLPGIVALDDA
modifications: Arthrospira platensis C1
notes: nutritive polypeptide
B9: SEQID-00102: nutritive polypeptide (protein, listed as Lactobacillus johnsonii)
chain: MTEEEIFNKIADMISERFSIDRDKITKDLNFQNDLDADSIDFVELVMDLEDTFGAEIPDDDAEKLQTVGEAVEYIKSHQN
B10: SEQID-00099: nutritive polypeptide (protein, listed as Thermosynechococcus elongatus)
chain: MNQSEILEKVKAIVADQLSVDPEKVVPEASFAEDLNADSLDSVELIMALEEEFGVEIPDEEAEKLKTVQDVLDFINNKVAA
B11: SEQID-00305: nutritive polypeptide (protein, listed as Bos taurus)
chain: MPHQYPALTPEQKKELCDIAHRIVAPGKGILAADESTGSIAKRLQSIGTENTEENRRFYRQLLLTADDRVNPCIGGVILFHETLYQKADDGRPFPQVIKAKGGVVGIKVDKGVVPLAGTNGETTTQGLDGLSERCAQYKKDGADFAKWRCVLKIGEHTPSSLAIMENANVLARYASICQQNGIVPIVEPEILPDGDHDLKRCQYVTEKVLAAVYKALSDHHIYLEGTLLKPNMVTPGHACTQKYSHEEIAMATVTALRRTVPPAVPGITFLSGGQSEEEASINLNAINKCPLLKPWALTFSYGRALQASALKAWGGKKENLKAAQEEYVKRALANSLACQGKYTPSGKAGAAASESLFISNHAY
B12: SEQID-00098: nutritive polypeptide (protein, listed as Lactococcus lactis)
chain: MAVFEKVQDIIVDELGKEKEEVTLETSFEELDADSLDLFQIINDIEDEFDVEVDTEADMKTVADLVKYVENNK
B13: SEQID-00287: nutritive polypeptide (protein, listed as Saccharomyces cerevisiae)
chain: LVLGALLDTSHKFRNLDKDLCEKCAKCISMIGVLDVTKHEFKRTTYSENEVYDLNDSVQTIKFLIWVINDILV
modifications: source: /note="strain ATCC 204508 / S288c"
notes: nutritive polypeptide
B14: SEQID-00678 (BS): nutritive polypeptide (protein, listed as Saccharomyces cerevisiae)
chain: MSSSESIRMVLIGPPGAGKGTQAPNLQERFHAAHLATGDMLKSQIAKGTQLGLEAKKIMDQGGLVSDDIMVNMIKDELTNNPACKNGFILDGFPRTIPQAEKLDQMLKEQGTPLEKAIELKVDDELLVARITGRLIHPASGRSYHKIFNPPKEDMKDDVTGEALVQRSDDNADALKKRLAAYHAQTEPIVDFYKKTGIWAGVDASQPPATVWADILNKLGKD
modifications: source: /note="strain ATCC 204508 / S288c"

Assay: SGF digest of 168 nutritive polypeptide library, intact protein by LC-MS/MS
Format: in vitro ADME
Conditions: 168 nutritive polypeptide library SGF digest, LC-MS/MS spectral counts
Summary of the method: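 A 168-protein IMAC-purified recombinant library was digested in simulated gastric fluid and the 0 and 10 min samples were profiled by SDS-PAGE fractionation, in-gel trypsin digestion and nanoLC-MS/MS. Percent intact protein at 10 min is the ratio of spectral counts (t10/t0), summed over the peak fraction and two flanking fractions. Filters were 1% FDR and at least two unique peptides.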

Row | Molecule | % Intact Protein at 10 min
1 | B1 | 0%
2 | B2 | 3.3%
3 | B3 | 1.1%
4 | B4 | 24.3%
5 | B5 | 12%
6 | B6 | 0%

Same assay, conditions: 168 nutritive polypeptide library, LC-MS/MS

Row | Molecule | % Remaining at 10 min
7 | B2 | 3.3%
8 | B3 | 1.1%
9 | B4 | 24.3%
10 | B5 | 12%
11 | B6 | 0%

Assay: Thermostability, temperature of aggregation (ProteoStat Thermal Shift)
Format: physicochemical
Design: key to Tagg: temperature in °C
Conditions: Table E31D; heated 25° C. to 95° C.
Method: The thermostability of proteins in a buffer cocktail of Citric Acid and Dibasic Sodium Phosphate over a pH range of 2.8 to 7.1 (preparation described above in Table E31B) was determined using the ProteoStat® Thermal Shift Stability Kit (Enzo Life Sciences) according to the manufacturer's standard protocol. Briefly, protein solutions (˜10 mg/ml) containing 1× ProteoStat TS Detection Reagent were heated from 25° C. to 95° C. at a rate of 0.5° C. per 30 sec using a real-time PCR (rtPCR) thermocycler (BioRad) equipped with a plate reader (SynergyMx, Biotek) while monitoring the fluorescence with a Texas Red filter.

Row | Molecule | Tagg (pH 7.1)
12 | B2 | 54.5
13 | B7 | >95
14 | B8 | 46
15 | B9 | >95
16 | B6 | 95
17 | B10 | 64
18 | B11 | 48

Same assay, conditions: pH 2.8

Row | Molecule | Tagg
19 | B3 | 95

Same assay, conditions: pH 3.7

Row | Molecule | Tagg
20 | B3 | 95

Same assay, conditions: pH 4.3

Row | Molecule | Tagg
21 | B3 | 95^

Same assay, conditions: pH 6.5

Row | Molecule | Tagg
22 | B3 | 45.5

Same assay, conditions: pH 7.1

Row | Molecule | Tagg
23 | B3 | 48.5
24 | B12 | >95

Assay: Intact half-life during simulated gastric fluid (SGF) digestion
Conditions: SGF pH 1.5, pepsin:polypeptide 1:20 w/w, 37° C.; intact protein
Method: In this experiment the nutritive polypeptide was exposed to a series of proteases that are active in the stomach (pepsin) and intestine (trypsin and chymotrypsin), and the presence of intact protein was measured over time. Specifically, the nutritive polypeptide was first treated at a concentration of 2 g/L with simulated gastric fluid (SGF) (0.03 M NaCl, titrated with HCl to pH 1.5 with a final pepsin:polypeptide ratio of 1:20 w/w) at 37° C. Time points were sampled from the reaction and quenched by addition of 0.2 M Na2CO3. […] Time points were sampled from the reaction and quenched by addition of Trypsin/Chymotrypsin Inhibitor (Sigma) solution until 240 min.
Time point samples were analyzed for intact protein by chip electrophoresis, polyacrylamide gel electrophoresis, or western blot. For chip electrophoresis (Labchip GX II), samples were analyzed using a HT Low MW Protein Express LabChip® Kit (following the manufacturer's protocol). A protein ladder was loaded every 12 samples for molecular weight determination (kDa) and quantification. For polyacrylamide gel electrophoresis, samples (1 μg) were separated on a NuPAGE® Novex® Bis-Tris Precast gel (Life Technologies) according to the manufacturer's protocol. The gel was stained using SimplyBlue™ SafeStain (Invitrogen) and imaged using a Chemidoc XRS+ (BioRad) or transferred onto nitrocellulose membranes using the iBlot® Dry Blotting System (Life Technologies) and iBlot® Western Detection Kit (Life Technologies) according to the manufacturer's protocol. Proteins were detected by blotting with Anti-His [C-term]-HRP antibody diluted 3:5000 in Blok™-PO Blocking Buffer using the SNAP I.d.® Protein Detection System (Millipore) according to the manufacturer's protocol. Blots were treated with Luminata Classico Western HRP Substrate (Millipore) according to the manufacturer's protocol and imaged using chemiluminescent detection on the Molecular Imager® Gel Doc™ XR+ System (Bio-Rad). Quantification of intact protein was determined by densitometry using ImageLab (BioRad). For all analysis methods the relative concentration of the polypeptide at each time point (if detected) was plotted overtime and fit to an exponential curve to calculate the intact half-life.
Specifically, the t=0 (enzyme-free control) and t=2 min samples from the SGF digest were analyzed for intact protein as described by chip electrophoresis, SDS-PAGE, western blot, and/or LC-MS/MS. Relative quantities of polypeptides at each time point were determined and the percentage of intact protein remaining at t=2 was determined. Intact half-life values determined using this method are reported as greater or less than 2 min to indicate more or less than 50% of the protein remained intact at t=2 min, respectively.

Row | Molecule | SGF Half-life (t½)
25 | B1 | <600 s
26 | B13 | 180 s
27 | B2 | 24 s
28 | B3 | 12 s
29 | B7 | 30 s
30 | B4 | 30 s
31 | B8 | 12 s
32 | B9 | 36 s
33 | B14 | 12 s
34 | B5 | 12 s
35 | B6 | 18 s
36 | B10 | 60 s
37 | B12 | 24 s
38 | B11 | 12 s

Same assay, conditions: purified proteins, chip electrophoresis

Row | Molecule | Half-life
39 | B2 | 24 s
40 | B3 | 12 s
41 | B4 | 30 s
42 | B5 | 12 s
43 | B6 | 18 s

Assay: pH solubility
Format: physicochemical
Conditions: lower pH
Method: pH Solubility. […] Protein was either lyophilized and then resuspended in buffer cocktail mixtures, or concentrated and then spiked into buffer cocktail mixtures at a final protein concentration of 5 to 30 mg/ml. As a control, protein was also dissolved in a solution of 8 M urea. Protein solutions were shaken for 10 min at room temperature. Turbidity of proteins was determined by measuring the absorbance of protein solutions at 650 nm. The protein solution was then centrifuged for 10 min at 1100×g to pellet undissolved or precipitated protein. The soluble protein fraction (supernatant) was sampled and protein concentration was measured by one or more of the following methods: Coomassie Plus Protein Assay (Pierce), Chip electrophoresis, gel electrophoresis, and/or absorbance at 280 nm. The pH range over which select proteins remained greater than 80% soluble as determined by Bradford and the A650 value are listed in Table E31C.

Row | Molecule | pH Range where Protein is >80% detected as Soluble and A650 <1 OD: Low
44 | B13 | 6.2

Same assay, conditions: other pH

Row | Molecule | pH Range where Protein is >80% detected as Soluble and A650 <1 OD: Other
45 | B13 | 2.6

Same assay, conditions: upper pH

Row | Molecule | pH Range where Protein is >80% detected as Soluble and A650 <1 OD: High
46 | B13 | 9.1
